Reference: PMC9045721, “Cryo-EM structure of the EBV ribonucleotide reductase BORF2 and mechanism of APOBEC3B inhibition” (Science Advances, 2022)
Residue numbers refer to the chain shown, from its start. Names may count otherwise.

B1: MBP-BORF2 (1 to 826) (enzyme)
chain: MATTSHVEHELLSKLIDELKVKANSDPEADVLAGRLLHRLKAESVTHTVAEYLEVFSDKFYDEEFFQMHRDELETRVSAFAQSPAYERIVSSGYLSALRYYDTYLYVGRSGKQESVQHFYMRLAGFCASTTCLYAGLRAALQRARPEIESDMEVFDYYFEHLTSQTVCCSTPFMRFAGVENSTLASCILTTPDLSSEWDVTQALYRHLGRYLFQRAGVGVGVTGAGQDGKHISLLMRMINSHVEYHNYGCKRPVSVAAYMEPWHSQIFKFLETKLPENHERCPGIFTGLFVPELFFKLFRDTPWSDWYLFDPKDAGDLERLYGEEFEREYYRLVTAGKFCGRVSIKSLMFSIVNCAVKAGSPFILLKEACNAHFWRDLQGEAMNAANLCAEVLQPSRKSVATCNLANICLPRCLVNAPLAVRAQRADTQGDELLLALPRLSVTLPGEGAVGDGFSLARLRDATQCATFVVACSILQGSPTYDSRDMASMGLGVQGLADVFADLGWQYTDPPSRSLNKEIFEHMYFTALCTSSLIGLHTRKIFPGFKQSKYAGGWFHWHDWAGTDLSIPREIWSRLSERIVRDGLFNSQFIALMPTSGCAQVTGCSDAFYPFYANASTKVTNKEEALRPNRSFWRHVRLDDREALNLVGGRVSCLPEALRQRYLRFQTAFDYNQEDLIQMSRDRAPFVDQSQSHSLFLREEDAARASTLANLLVRSYELGLKTIMYYCRIEKAADLGVMECKASAALSVPREEQNERSPAEQMPPRPMEPAQVAGPVDIMSKGPGEGPGGWCVPGGLEVCYKYRQLFSEDDLLETDGFTERACESCQ
notes: Epstein-Barr virus ribonucleotide reductase large subunit BORF2, residues 1 to 826, codon-optimized gene; wild-type constructs match GenBank V01555.2; Dimer in the cryo-EM structure; The MBP tag was not detected in the maps; also called EBV RNR large subunit; wild-type BORF2; source: 293T, transfected; purified (amylose resin, SEC); not shown: MBP, N-terminal, kept
B2: MBP-BORF2 D26R (enzyme, Epstein-Barr virus (EBV), UniProt P03190 1-826, looked up)
chain: B1 chain with D26R
notes: Epstein-Barr virus BORF2, residues 1 to 826, codon-optimized gene; GenBank V01555.2; source: 293T, transfected; purified with amylose resin (SEC profiles); in lysate (co-IP); not shown: MBP, N-terminal, kept
B3: MBP-BORF2 R39E/D26R (enzyme, Epstein-Barr virus (EBV), UniProt P03190 1-826, looked up)
chain: B1 chain with D26R, R39E
notes: Epstein-Barr virus BORF2, residues 1 to 826, codon-optimized gene; GenBank V01555.2; also called D26R/R39E BORF2; double mutant R39E/D26R; source: 293T, transfected; purified with amylose resin (SEC profiles); in lysate (co-IP); not shown: MBP, N-terminal, kept
B4: A3Bctd (193-382)-mycHis (domain or fragment)
chain: not shown
notes: APOBEC3B (A3B) C-terminal catalytic domain (ctd), residues 193-382; wild-type constructs match GenBank NM_004900; also called A3Bctd-mycHis; A3B-mycHis; not shown: myc, C-terminal, kept; His, C-terminal, kept

Legend:
[1] = target: the molecule itself; test: cryo-EM structure; MBP-BORF2 (after amylose resin) mixed with excess purified A3Bctd-mycHis, complex isolated by SEC in 20 mM tris-HCl (pH 8), 150 mM NaCl, 1 mM TCEP; dimeric classes, C2, focused refinement
A3Bctd (193-382)-mycHis = target: B4; test: SEC; BORF2 and A3Bctd purified individually with affinity resins, mixed with excess A3Bctd, run on SEC; SDS-PAGE of the fractions of the major peak; 20 mM tris-HCl (pH 8), 150 mM NaCl; conditions: both partners purified
[2] = target: the molecule itself; test: SEC; MBP-BORF2 and mutant derivatives purified with amylose resin; approximately 150 ug of each on S200 Increase in 10 mM tris-HCl (pH 8), 150 mM NaCl; self-association (dimer to monomers)
MBP-BORF2 (1 to 826) = target: B1; test: BLI; Octet RED; A3-mycHis proteins loaded on Ni-NTA biosensors (12.5 ug/ml A3Bctd and A3A, 8 ug/ml A3G); MBP-BORF2 200 to 6.25 nM; 20 mM tris-HCl (pH 8), 300 mM NaCl; 30°C; association 1200 s, dissociation 1800 s; 1:2 binding model; conditions: both partners purified

Sequence of A3Bctd (193-382)-mycHis (Q9UH17 193-382): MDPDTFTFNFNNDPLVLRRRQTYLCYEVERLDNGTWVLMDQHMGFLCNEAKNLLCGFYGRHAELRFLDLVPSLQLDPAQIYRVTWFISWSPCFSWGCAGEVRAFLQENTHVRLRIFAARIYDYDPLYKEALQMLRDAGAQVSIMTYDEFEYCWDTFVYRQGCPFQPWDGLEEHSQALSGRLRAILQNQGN

In the case of B1, the “stoichiometry N” value [1] is reported as 2 and the “stoichiometry N” value (A3Bctd (193-382)-mycHis) is reported as 1.

B2: binds [2].

B3: binds [2].

Binder B4 has a Kd (MBP-BORF2 (1 to 826)) of roughly 1 nM.
